The target in assay [1] is T1, glyoxylate and hydroxypyruvate reductase (human, UniProt Q9UBQ7 1-328).
T1 construct: also called GRHPR
T1 sequence: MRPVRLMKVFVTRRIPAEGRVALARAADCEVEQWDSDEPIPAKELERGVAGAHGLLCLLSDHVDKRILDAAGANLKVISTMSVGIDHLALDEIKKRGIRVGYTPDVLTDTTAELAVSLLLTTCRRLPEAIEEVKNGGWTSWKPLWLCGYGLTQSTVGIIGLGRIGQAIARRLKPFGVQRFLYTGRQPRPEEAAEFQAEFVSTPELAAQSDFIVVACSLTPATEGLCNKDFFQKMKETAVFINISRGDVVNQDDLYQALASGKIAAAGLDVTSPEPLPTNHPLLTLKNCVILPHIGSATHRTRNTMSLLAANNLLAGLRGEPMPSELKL

For assay [2], the target named is BAF chromatin remodeling complex subunit BCL7C, transcript variant 2 (human, UniProt Q8WUZ0 1-217).
For assay [3], the target named is T2, acyl-CoA binding domain containing 6 (human, UniProt Q9BR61 1-282).
T2 construct: also called ACBD6
T2 sequence: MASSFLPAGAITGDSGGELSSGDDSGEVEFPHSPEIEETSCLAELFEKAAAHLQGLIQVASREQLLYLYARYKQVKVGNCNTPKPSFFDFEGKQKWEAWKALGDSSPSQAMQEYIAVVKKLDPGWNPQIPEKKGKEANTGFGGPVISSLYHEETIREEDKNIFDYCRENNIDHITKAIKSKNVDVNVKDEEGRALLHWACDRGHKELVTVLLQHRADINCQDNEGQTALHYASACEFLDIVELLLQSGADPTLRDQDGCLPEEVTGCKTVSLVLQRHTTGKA

In another assay the target is T3, Dexd-box helicase 52 (human, UniProt Q9Y2R4 1-599).
T3 construct: also called DDX52
T3 sequence: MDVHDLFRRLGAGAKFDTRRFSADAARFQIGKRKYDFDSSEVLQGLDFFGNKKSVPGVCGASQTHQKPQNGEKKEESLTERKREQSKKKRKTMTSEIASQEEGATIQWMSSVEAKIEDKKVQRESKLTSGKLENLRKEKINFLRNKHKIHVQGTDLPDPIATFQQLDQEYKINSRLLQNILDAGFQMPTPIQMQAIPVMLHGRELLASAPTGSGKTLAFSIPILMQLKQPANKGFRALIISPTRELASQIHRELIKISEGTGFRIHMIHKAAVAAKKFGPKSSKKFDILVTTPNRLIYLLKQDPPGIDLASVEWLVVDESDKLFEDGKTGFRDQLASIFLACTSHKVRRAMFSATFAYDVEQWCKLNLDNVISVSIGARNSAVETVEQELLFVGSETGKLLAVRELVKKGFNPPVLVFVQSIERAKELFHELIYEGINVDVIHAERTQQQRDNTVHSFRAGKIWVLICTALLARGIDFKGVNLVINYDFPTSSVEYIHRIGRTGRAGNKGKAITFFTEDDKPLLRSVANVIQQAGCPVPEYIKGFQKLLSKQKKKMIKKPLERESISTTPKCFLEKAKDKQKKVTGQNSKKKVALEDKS

Assay [4] addresses T4, G protein-coupled receptor 4 (human, UniProt P46093 1-362).
T4 construct: also called GPR4

A further assay deals with T5, G antigen 2A (human, UniProt Q6NT46 1-116).
T5 construct: also called GAGE2A
T5 sequence: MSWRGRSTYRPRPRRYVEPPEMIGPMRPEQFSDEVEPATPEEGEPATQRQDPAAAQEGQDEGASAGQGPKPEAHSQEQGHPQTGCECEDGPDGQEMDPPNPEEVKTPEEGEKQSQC

For assay [5], the target named is T6, PNMA family member 5, transcript variant 2 (human, UniProt Q96PV4 1-448).
T6 construct: on protein array; also called PNMA5
Put plainly: protein array.

For assay [6], the target named is T7, phospholipase C delta 1, transcript variant 2 (human, UniProt P51178 1-756).
T7 construct: on protein array; also called PLCD1
T7 sequence: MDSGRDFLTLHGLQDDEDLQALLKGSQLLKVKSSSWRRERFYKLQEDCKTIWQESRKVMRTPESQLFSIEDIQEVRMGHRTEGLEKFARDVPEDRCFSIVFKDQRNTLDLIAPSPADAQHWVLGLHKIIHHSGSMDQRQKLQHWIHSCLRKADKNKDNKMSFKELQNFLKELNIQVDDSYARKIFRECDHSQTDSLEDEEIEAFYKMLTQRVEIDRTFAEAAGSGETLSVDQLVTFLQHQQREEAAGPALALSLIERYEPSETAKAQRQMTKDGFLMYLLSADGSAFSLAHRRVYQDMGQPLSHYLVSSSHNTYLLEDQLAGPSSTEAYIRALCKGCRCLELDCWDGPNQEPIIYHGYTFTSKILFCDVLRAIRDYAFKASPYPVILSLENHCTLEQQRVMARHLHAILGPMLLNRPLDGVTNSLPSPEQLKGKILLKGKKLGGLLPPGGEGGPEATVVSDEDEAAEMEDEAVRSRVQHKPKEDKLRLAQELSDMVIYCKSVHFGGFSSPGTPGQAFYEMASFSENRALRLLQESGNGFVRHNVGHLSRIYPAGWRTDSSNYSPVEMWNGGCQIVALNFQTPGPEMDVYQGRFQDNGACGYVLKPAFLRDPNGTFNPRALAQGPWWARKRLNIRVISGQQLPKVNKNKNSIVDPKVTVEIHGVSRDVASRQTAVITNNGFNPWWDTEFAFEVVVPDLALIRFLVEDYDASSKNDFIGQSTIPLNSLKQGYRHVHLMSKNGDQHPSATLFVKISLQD
The assay is described as follows: protein array.

Assay [7] has as its target T8, zinc finger protein 326, transcript variant 1 (human, UniProt Q5BKZ1 1-582).
T8 construct: on protein array; also called ZNF326
T8 sequence: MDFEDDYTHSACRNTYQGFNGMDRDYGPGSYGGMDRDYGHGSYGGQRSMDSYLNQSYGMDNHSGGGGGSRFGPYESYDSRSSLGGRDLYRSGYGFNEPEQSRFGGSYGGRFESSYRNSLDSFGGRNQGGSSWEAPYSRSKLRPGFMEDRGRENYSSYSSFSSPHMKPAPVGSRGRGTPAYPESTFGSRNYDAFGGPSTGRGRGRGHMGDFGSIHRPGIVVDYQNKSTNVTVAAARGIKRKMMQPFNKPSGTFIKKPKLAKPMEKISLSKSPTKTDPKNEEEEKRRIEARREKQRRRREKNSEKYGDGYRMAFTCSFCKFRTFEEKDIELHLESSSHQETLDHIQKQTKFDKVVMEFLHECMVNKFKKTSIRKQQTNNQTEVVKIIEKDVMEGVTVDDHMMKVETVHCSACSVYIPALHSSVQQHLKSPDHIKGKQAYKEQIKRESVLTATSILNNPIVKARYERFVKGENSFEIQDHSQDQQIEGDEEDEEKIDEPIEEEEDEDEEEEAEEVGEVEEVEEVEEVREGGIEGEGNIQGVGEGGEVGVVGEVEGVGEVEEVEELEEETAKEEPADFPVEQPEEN
Put plainly: protein array.

For a further assay, the target named is T9, phosducin like (human, UniProt Q13371 2-301).
T9 construct: also called PDCL
T9 sequence: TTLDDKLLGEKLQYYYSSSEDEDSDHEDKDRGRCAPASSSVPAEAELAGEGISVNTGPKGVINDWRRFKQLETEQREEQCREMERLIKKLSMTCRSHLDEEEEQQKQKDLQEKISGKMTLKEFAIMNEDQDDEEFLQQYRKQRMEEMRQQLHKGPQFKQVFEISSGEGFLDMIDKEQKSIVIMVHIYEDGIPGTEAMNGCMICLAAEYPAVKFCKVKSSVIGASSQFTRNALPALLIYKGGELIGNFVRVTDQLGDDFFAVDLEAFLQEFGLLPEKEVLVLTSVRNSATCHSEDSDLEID

Assay [8] has as its target T10, aarF domain containing kinase 5 (human, UniProt Q3MIX3 1-580).
T10 construct: also called ADCK5

The target in another assay is T11, cancer/testis antigen 1A (human, UniProt P78358 1-180).
T11 construct: also called CTAG1A

In assay [9] the target is T12, proliferating cell nuclear antigen, transcript variant 1 (human, UniProt P12004 1-261).
T12 construct: also called PCNA
T12 sequence (P12004 whole entry, change not shown): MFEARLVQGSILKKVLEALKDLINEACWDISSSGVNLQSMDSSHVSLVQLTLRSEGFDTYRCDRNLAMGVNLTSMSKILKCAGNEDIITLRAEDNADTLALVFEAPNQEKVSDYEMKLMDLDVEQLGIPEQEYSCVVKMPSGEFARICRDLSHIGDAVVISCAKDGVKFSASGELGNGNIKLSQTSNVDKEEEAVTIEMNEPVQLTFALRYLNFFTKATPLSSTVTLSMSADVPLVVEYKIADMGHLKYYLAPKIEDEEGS

T11 sequence (P78358 whole entry): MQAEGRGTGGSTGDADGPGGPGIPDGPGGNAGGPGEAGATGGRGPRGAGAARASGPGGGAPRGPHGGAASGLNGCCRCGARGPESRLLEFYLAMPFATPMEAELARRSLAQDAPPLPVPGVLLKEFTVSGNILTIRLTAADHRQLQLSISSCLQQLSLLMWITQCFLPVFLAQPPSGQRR
T4 sequence (P46093 whole entry): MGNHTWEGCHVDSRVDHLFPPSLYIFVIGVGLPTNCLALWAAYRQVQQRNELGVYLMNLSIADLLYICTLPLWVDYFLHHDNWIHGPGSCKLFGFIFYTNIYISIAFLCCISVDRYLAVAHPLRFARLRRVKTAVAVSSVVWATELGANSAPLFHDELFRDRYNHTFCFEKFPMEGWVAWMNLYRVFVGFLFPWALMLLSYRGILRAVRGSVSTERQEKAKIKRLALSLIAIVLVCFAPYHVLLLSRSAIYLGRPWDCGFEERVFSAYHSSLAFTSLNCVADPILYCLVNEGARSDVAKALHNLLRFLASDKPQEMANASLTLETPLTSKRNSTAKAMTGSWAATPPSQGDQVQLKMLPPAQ
T10 sequence (Q3MIX3 other isoform, or with tags, fused parts or gaps limits assumed): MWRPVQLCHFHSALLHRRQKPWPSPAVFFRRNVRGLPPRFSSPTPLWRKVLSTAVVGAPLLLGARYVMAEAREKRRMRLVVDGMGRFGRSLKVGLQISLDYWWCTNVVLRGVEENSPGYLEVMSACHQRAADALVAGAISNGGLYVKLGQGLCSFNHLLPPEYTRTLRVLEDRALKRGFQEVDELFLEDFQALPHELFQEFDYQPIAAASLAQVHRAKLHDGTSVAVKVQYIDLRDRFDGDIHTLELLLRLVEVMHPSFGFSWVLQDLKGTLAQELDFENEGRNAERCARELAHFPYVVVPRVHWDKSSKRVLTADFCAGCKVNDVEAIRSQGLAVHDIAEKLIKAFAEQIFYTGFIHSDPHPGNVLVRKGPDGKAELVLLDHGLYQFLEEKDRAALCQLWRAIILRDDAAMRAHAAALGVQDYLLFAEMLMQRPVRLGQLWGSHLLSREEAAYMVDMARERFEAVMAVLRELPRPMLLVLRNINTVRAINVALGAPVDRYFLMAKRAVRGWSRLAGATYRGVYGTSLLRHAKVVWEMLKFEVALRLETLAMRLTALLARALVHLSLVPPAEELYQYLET
T6 sequence (Q96PV4 other isoform, or with tags, fused parts or gaps mutant limits assumed): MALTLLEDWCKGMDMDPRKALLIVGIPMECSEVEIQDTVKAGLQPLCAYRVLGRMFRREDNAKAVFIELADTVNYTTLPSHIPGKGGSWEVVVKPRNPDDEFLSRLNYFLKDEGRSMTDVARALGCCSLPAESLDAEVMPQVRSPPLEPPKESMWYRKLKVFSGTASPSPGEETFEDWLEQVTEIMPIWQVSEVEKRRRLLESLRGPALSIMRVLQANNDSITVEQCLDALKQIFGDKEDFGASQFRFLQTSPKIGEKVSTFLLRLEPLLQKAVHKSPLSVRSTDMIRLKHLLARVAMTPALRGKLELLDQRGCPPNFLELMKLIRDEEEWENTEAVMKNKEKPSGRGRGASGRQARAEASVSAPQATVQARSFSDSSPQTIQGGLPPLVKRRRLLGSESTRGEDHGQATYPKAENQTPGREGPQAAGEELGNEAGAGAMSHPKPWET

B1: TTES1004 (antibody, V domains shown)
VH: EVQLVESGGGLVQPGGSLRLSCVASGFTFSSYSMNWVRQAPGKGLKWVSYISSSRSTIYNADSVKGRFTISRDNAKKSLYLQMNSLRAEDTAVYYCARVSVAAPTCLDYWGQGTLVTVSS
VL: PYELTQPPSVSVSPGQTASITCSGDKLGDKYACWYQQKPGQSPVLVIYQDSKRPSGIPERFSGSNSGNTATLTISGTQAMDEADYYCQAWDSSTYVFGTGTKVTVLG
As for B1, the binding result in [1] is listed as “binds”.

B2: TTHY1003 (antibody, V domains shown)
VH: QVQLVQSGAEMKKPGTSVKVSCRTSGYIFTGSFMHWVRQAPAQGLEWMGWINPKTGATYYTEKFKGRVTLTRDTSINTAYMEMTSLRSDDTAVYYCARGFCDLPACYPVPQYNWFDPWGQGTLVTVSS
VL: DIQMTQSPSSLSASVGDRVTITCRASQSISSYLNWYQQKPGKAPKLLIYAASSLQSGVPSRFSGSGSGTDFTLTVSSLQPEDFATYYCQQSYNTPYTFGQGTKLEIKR
With B2, in assay [2], the binding result was “binds”.

B3: TTES1006 (antibody, V domains shown)
VH: EVQLVESGGGLVQPGGSLRLSCAASGFTFSKFWMHWVRQAPGKGLVWLSRINTDGTVTTYADSVKGRFTISRDNAKSTLYLQMNSLRVEDTAVYYCAGGGSQVDFWGQGTLVTVSS
VL: PYELTQPPSVSVSPGQTASIACSGDNLGNKYAWWYRQKPGQSPVLVMYKDNKRPSGIPERFSGSNSGNTATLTISGTQAMDEADYYCQTWDSSTVIFGGGTKLTVQ
Consider B3, for which the binding result in assay [3] is “binds”.

B4: TTES1008 (antibody, V domains shown)
VH: QVQLVESGGGVVQPGRSLRLSCAASGFIFSSYGMHWVRQAPGKGLEWVAVISYDGSNKYYADSVKGRFTISRDKSKNTLHLQMNSLRAEDTAVYYCAKDSGSNDDMDVWGKGTTVTVSS
VL: QSVLTQPPSVSAAPGQKVTISCSGSSSNIGNNYVSWYQQLPGTAPKLLIYDNNKRPSGIPDRFSGSKSGTSATLGITGLQTGDEADYYCGTWDSSLSAGVFGTGTKVTVLG
In the case of B4, the binding result (in the assay with Dexd-box helicase 52; in [4]) was “binds” throughout.

B5: TTES1012 (antibody, V domains shown)
VH: EVQLVESGGGLVQPGGSLRLSCAASGFTFSSYWMTWVRQAPGKGLEWVANIKQDGSEKYYVDSVKGRFTISRDNSKNSLYLQMNSLRAEDTAVYYCARAGYDLFGWFDPWGQGTLVTVSS
VL: SYELTQPPSVSVSPGQTARITCSGDALPKQYAYWYQQKPGQAPVLVIYKDSERPSGIPERFSGSSSGTTVTLTISGVQAEDEADYYCQSADSSGTYVFGTGTKVTVLG
On to B5, for which the binding result with G antigen 2A is recorded as “binds”.

B6: TBRE1039 (antibody, V domains shown)
VH: PVQLVQSGAEVKKPGSSVKVSCKASGGTFSSYAISWVRQAPGQGLEWMGGIIPIFGTANYAQKFQGRVTITADESTSTAYMELSSLRSEDTAVYYCARENWNSAGTTEWFDPWGQGTLVTVSS
VL: PYVLTQPPSVSVAPGKTARITCGGNNIGSKSVHWYQQKPGQAPVLVIYYDSDRPSGIPERFSGSNSGNTATLTISRVEAGDEADYYCQVWDSSSDHYVVFGGGTKLTVLG
notes: VH/VL only
Take B6: the binding result in assay [5], in assay [6] and in assay [7] was “binds” each time.

B7: TTES1007 (antibody, V domains shown)
VH: QITLKESGPTLVKPTQTLTLTCTFSGFSLTTTGVGVGWIRQPPGKALEWLALIYWDDDKRYSPSLKSRLIITKDTSKNQVVLTMTNMDPVDTATYYCAHRFGRGVSYYYYGMDVWGQGTTVTVSS
VL: not shown
Regarding B7, in the assay with phosducin like, the binding result is reported as “binds”.

B8: TTES1009 (antibody, V domains shown)
VH: EVQLVESGGGLVQPGGSLRLSCAASGFTFSSYEMNWVRQAPGKGLEWVSYISSSGSTIYYADSVKGRFTISRDNAKNSLYLQMNSLRAEDTAVYYCARRGFYYYYGMDVWGQGTTVTVSS
VL: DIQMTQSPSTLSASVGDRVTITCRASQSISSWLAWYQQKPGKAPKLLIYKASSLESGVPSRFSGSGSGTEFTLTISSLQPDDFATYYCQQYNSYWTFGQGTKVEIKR
Consider B8, for which, in [8], the binding result is listed as “binds”.

B9: TTHY1004 (antibody, V domains shown)
VH: PVQLQESGPGLVKPSQTLSLTCTVSGGSISSGTYYWSWIRQPAGKGLEWIGRIYASGSTNYNPSLKSRVTISVDTSKNQFSLKLTSVTAADTAVYYCARYSGSYPLGFDYWGQGTLVTVSS
VL: DIQMTQSPSSLSASVGDRVTITCRASQSISTYLNWYQQKPGMAPKLLIYAASTLQSGVPSRFSGSGSATDYTLTISSLQPEDFATYYCQQSYNTPLTFGGGTKVDIKR
B9: the binding result with cancer/testis antigen 1A is listed as “binds”.

B10: TTHY1002 (antibody, V domains shown)
VH: EVQVVESGGGLGQPGGSLRLSCAASGFTFSSYSMNWVRQAPGKGLEWVSYISSSSSTKYYADSVKGRFTISRDNAKKSLYLQMNSLRDEDTAVYYCASPVRPWGQGTLVTVSS
VL: EIVMTQSPATLSVSPGERATLSCRASQSVSSNLAWYQQKPGQAPRLLIYGASTRATGIPARFSGSGSGTEFTLTISSLQSEDFAIYYCQQYNSWPAFGGGTKVEIK
For the molecule B10, in [9], the binding result is “binds”.
